Results on one molecule are retold here after patent US20130177572A1 (X BODY, published 2013).

For one assay, the target named is T1, human PDGFRβ (human, UniProt P09619 33-530, limits assumed).
T1 construct: also called hPDGFRβ; recombinant human PDGFRβ
Put plainly: solution equilibrium binding: 35S-Met labelled in vitro translated protein, human PDGFRβ titrated, capture on protein A beads, scintillation counts. How it is done:
The affinity of several scFvs was determined by solution based equilibrium binding assay. Specifically, 120 pmol of scFv RNA was translated into free protein with ³⁵S Met incorporated. The translated reaction mixture was 3-fold diluted in binding buffer containing 1×PBS with 0.025% triton, 1 mg/mL BSA and 0.1 mg/mL sssDNA. Human PDGFRβ was diluted in the same binding buffer to final concentrations from 100 nM to 0 nM. The diluted scFv mixture was incubated with hPDGFRβ in final volume of 100 ul on Kingfisher plates (Thermofisher Scientific, 97002084). Following incubation, 25 ul of protein A magnetic beads (Invitrogen) were used to capture the PDGFRβ from solution. The captured PDGFRβ was washed and eluted in kingfisher Reader (Thermofisher Scientific). The amount of scFv (labeled with ³⁵S Met) bound to the magnetic bead-immobilized hPDGFRβ was counted using a scintillation counter and the Kd was calculated with Graph Pad Prism 5.

Another assay deals with T2, mouse PDGFRβ (mouse, UniProt P05622 32-530, limits assumed).
T2 sequence (looked up): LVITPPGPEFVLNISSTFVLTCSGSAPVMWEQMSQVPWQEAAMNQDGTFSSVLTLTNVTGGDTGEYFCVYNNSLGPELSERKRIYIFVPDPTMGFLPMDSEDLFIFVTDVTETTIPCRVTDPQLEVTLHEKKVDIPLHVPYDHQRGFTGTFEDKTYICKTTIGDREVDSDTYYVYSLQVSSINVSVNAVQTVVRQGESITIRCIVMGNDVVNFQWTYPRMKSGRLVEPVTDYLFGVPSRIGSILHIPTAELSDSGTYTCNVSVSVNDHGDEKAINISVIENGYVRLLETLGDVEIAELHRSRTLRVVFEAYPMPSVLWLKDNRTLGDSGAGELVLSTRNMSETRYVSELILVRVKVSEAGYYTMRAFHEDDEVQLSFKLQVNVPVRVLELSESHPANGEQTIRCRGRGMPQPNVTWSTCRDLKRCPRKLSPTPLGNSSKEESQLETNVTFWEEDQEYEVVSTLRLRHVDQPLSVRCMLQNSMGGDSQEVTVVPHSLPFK
Put plainly: 35S-Met labelled in vitro translated VH, binding to target.

Assay [1] addresses T3, human PDGFR-hIgG1-Fc chimeric fusion protein (human, UniProt P09619 33-530).
T3 construct: For the IgG assay it was captured by an anti-6His antibody, which points to a His tag; also called recombinant human PDGFR-hIgG1-Fc chimeric fusion protein (R&D, #385-PR-100/CF); human PDGFRβ; not shown: human IgG1 Fc
As to the kind of experiment: SPR (Biacore T100), PDGFR-hIgG1-Fc captured by anti-hIgG1 Fc, VH injected; series 0 to 120 in the legend box, unit inferred.

T3 sequence (P09619 33-530 limits assumed, change not shown): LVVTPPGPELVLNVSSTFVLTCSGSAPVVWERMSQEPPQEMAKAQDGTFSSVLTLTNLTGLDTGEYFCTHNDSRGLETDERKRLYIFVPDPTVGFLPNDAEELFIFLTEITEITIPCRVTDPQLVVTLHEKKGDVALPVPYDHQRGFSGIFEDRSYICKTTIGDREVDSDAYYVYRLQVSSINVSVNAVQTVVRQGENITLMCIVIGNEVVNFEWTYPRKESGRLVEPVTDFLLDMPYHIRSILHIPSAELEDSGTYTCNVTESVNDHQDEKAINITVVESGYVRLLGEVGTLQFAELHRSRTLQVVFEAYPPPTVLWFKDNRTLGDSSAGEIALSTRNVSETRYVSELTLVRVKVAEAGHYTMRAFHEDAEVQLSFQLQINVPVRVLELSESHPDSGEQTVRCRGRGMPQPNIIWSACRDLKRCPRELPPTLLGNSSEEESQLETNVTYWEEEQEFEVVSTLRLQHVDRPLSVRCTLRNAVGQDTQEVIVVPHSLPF
T1 sequence (P09619 33-530 limits assumed): as the sequence (P09619 33-530 limits assumed, change not shown) above

B1: XB1511 VH domain (other)
VH: QVQLVQSGAEVKKPGSSVKVSCKASGGTFSSYAISWVRQAPGQGLEWMGGIIPIFGTANYAQKFQGRVTITADESTSTAYMELSSLRSEDTAVYYCAIHGGDRSYWGQGTLVTVSS
notes: Isolated (unpaired) human VH domain; also called clone A4; A4 XB1511
Consider B1, for which the results for the Kd (in the assay with human PDGFRβ; in assay [1]) were 31.9 nM and 14.7 nM, respectively. Also, the binding result with mouse PDGFRβ is reported as “no binding (tested: 100 nM)”.
